Test results reported in article PMC11178655, “Dosimetry and pharmacokinetics of [^177Lu]Lu-satoreotide tetraxetan in patients with progressive neuroendocrine tumours” (European Journal of Nuclear Medicine and Molecular Imaging, 2024).
Like-named read-outs stand apart in the source and are kept apart here. Where a SMILES comes first, the peptide text is derived from it. Bridges are numbered along the chain shown (N, C = ends). [ ]: non-standard residue; d: D form. The star is where a group is joined. DOTA = O=C(O)CN1CCN(CC(=O)O)CCN(CC(=O)*)CCN(CC(=O)O)CC1; dPhe(4-NHCONH2) = NC(=O)Nc1ccc(C[C@@H](N)C(=O)O)cc1; Dihydroorotyl(S) = O=C1C[C@@H](C(=O)*)NC(=O)N1; Phe(4-Cl) = N[C@@H](Cc1ccc(Cl)cc1)C(=O)O; Phe(4-NH2) = Nc1ccc(C[C@H](N)C(=O)O)cc1

Columns and labels:
[1] = system: patients with progressive, SSTR-positive NETs; assay: Time-activity curves of whole body and organs (planar whole-body imaging, SPECT/CT); format: in vivo, human; settings: first treatment cycle, parts A and B; median
Method: In both parts A and B of the study, patients underwent planar whole-body imaging at 4 h and 1, 2, 3, and 6 days after each [^177Lu]Lu-satoreotide tetraxetan treatment cycle. Patients in part A also underwent single-photon emission computed tomography/computed tomography (SPECT/CT) at 24 h after each [^177Lu]Lu-satoreotide tetraxetan cycle. Those in part B underwent SPECT/CT, immediately before or after planar scintigraphy, at 4 h, and 1, 2, 3, and 6 days after each [^177Lu]Lu-satoreotide tetraxetan administration. Full details of the image acquisition methodology are provided in the Supplementary Information. Reconstruction parameters were set up to produce isotropic voxels of < 5 mm; voxels were continuous throughout the field of view. Anatomic coverage of the acquisition was determined according to the patients’ tumour locations on the planar whole-body scan acquisition with liver, both kidneys and spleen in the same bed position. […] VOIs for the same organs were drawn for all SPECT/CT images acquired in part B. All ROIs/VOIs were then used for activity quantification. […] Full details of the tumour delineation and activity quantification methodology are provided in the Supplementary Information.

[2] = Blood pharmacokinetics (total activity in whole blood, gamma counter); format: in vivo, human; settings: first treatment cycle
Method: (§1) To generate pharmacokinetic data, blood samples (2 mL) were taken at the stop of infusion (0 min) and 5, 30, and 60 min, 4 h, and 1, 2, 3, and 6 days after the end of each [^177Lu]Lu-satoreotide tetraxetan administration. Urine samples were collected over three intervals within 48 h (0–6 h, 6–24 h, and 24–48 h in part A; 0–4 h, 4–24 h, and 24–48 h in part B) following the first treatment cycle of [^177Lu]Lu-satoreotide tetraxetan. Total activity concentrations in whole blood and urine were determined locally, using a gamma counter calibrated for lutetium-177. In two selected study centres, additional blood samples (2 mL) were collected at 1 min, 4 h, and 1, 2, 3, and 6 days after each [^177Lu]Lu-satoreotide tetraxetan administration to evaluate potential radioactive metabolites in plasma.

[3] = Urinary excretion of radioactivity within 48 h (gamma counter); format: in vivo, human; settings: first treatment cycle; for dose excreted: human, urine, iv, total radioactivity, read-out: Cumulative urinary excretion within 48 h
Method: as §1

[4] = system: patients with progressive NETs; settings: cited from earlier work
Text: A novel radiolabelled SSTR antagonist, [^177Lu]Lu-satoreotide tetraxetan (also known as [^177Lu]^177Lu-SSO110, [^177Lu]^177Lu-IPN01072, [^177Lu]^177Lu-OPS201 or [^177Lu]^177Lu-DOTA-JR11), has recently shown a favourable pharmacokinetic and biodistribution profile, as ... || In the present study, we observed tumour ADCs of 5.0 Gy/GBq after cycle 1 and 4.0 Gy/GBq after cycle 3. These tumour ADCs are consistent with previously reported findings from a direct comparison of [^177Lu]Lu-satoreotide tetraxetan and [^177Lu]Lu-DOTA-TATE in the same tumours and patients in a cross-over design, which reported median tumour dose of [^177Lu]Lu-satoreotide tetraxetan of 7.0 Gy/GBq (range: 4.2–29 Gy/GBq), 3.5 times greater than the median tumour dose of [^177Lu]Lu-DOTA-TATE [22]. However, it should be noted that median tumour dose in this pilot study was calculated from a limi ...

[5] = on average, single mean activity 1.0 GBq vs 1.1 GBq, four patients

Structure (SMILES): C[C@@H](O)[C@@H]1NC(=O)[C@H](CCCCN)NC(=O)[C@@H](Cc2ccc(NC(N)=O)cc2)NC(=O)[C@H](Cc2ccc(NC(=O)[C@@H]3CC(=O)NC(=O)N3)cc2)NC(=O)[C@H](NC(=O)[C@H](Cc2ccc(Cl)cc2)NC(=O)CN2CCN(CC(=O)O)CCN(CC(=O)O)CCN(CC(=O)O)CC2)CSSC[C@@H](C(=O)N[C@H](Cc2ccc(O)cc2)C(N)=O)NC1=O [[^177Lu]Lu-satoreotide tetraxetan, metal not drawn] ({DOTA}-[Phe(4-Cl)][dC][Phe(4-NH2)](Dihydroorotyl(S))[dPhe(4-NHCONH2)]KTC[dY]-NH2; disulfide 2-7 (inferred); C-terminus assumed)
- Whole body uptake at 6 days [1]: 11.5 % administered activity
- Extrapolated area under the concentration-time curve (AUC0–infinity), mean [2]: 742.0 ± 303.0 MBq.h/L
- Terminal blood half-life, mean ± SD ([2]; gamma counter): 110.0 ± 50.1 h
- Terminal blood half-life, median ([2]; gamma counter): 127 h
- Blood uptake at 1–5 minutes (peak) ([2]; median): 3.03 % administered activity/L
- Cumulative urinary excretion within 48 h ([3]; patients treated with 4.5 GBq): 57–66%
- Radioactivity excreted via urine within 48 hours ([3]; patients treated with 4.5 GBq, range of medians across groups): 2.6–3.0 GBq
- Radioactivity excreted via urine within 48 hours ([3]; patients treated with 6 GBq, median): 3.4 GBq
- dose excreted ([3]; patients treated with 4.5 GBq): 57 to 66%
- dose excreted ([3]; patients treated with 6 GBq): ~57%
- Median tumour dose ([4]; cross-over design, 13 lesions in 4 patients): 7.0 Gy/GBq
- Tumour absorbed dose compared with [^177Lu]Lu-DOTA-TATE [4, 5]: three-fold higher
- Tumour-to-kidney absorbed dose ratio compared with [^177Lu]Lu-DOTA-TATE [4, 5]: two-fold higher
- Median tumour dose relative to [^177Lu]Lu-DOTA-TATE ([4]; same tumours and patients, cross-over): 3.5 times
